According to paper PMC3411398, “Quaternary structures of recombinant, cellular, and serum forms of Thymidine Kinase 1 from dogs and humans” (BMC Biochemistry, 2012):
Where “and” joins values, the source holds several entries; their conditions need not be identical. Equal entries are not always repeated.

Legend:
[1] = biological target: cellular (native) canine TK1 from MDCK cells (dog (endogenous in MDCK)); assay: SEC; Superose 12, 0.01 M HEPES/KOH pH 7.6, 0.15 M NH4Cl, 0.02% NaN3; crude cell extracts (MDCK, CEM), untreated or treated with DTE before chromatography; fractions read by TK1 activity and western blot
[2] = biological target: canine serum TK1 (dog (endogenous in serum)); assay: SEC; Superose 12, 0.01 M HEPES/KOH pH 7.6, 0.15 M NH4Cl, 0.02% NaN3; sera diluted 1:1, untreated or pre-treated with 20 mM DTE; fractions read by TK1 activity and immunoaffinity capture with western blot
[3] = biological target: the molecule itself; assay: as above
[4] = biological target: the molecule itself; assay: SEC; Superose 12, 0.01 M HEPES/KOH pH 7.6, 0.15 M NH4Cl, 0.02% NaN3, no reducing agent in the buffer; 4 ug of freshly isolated recombinant TK1, untreated or pre-incubated with 20 mM DTE for 30 min on ice; fractions read by TK1 activity and western blot
[5] = biological target: the molecule itself; assay: SEC; Superose 12, 0.01 M HEPES/KOH pH 7.6, 0.15 M NH4Cl, 0.02% NaN3; crude cell extracts (MDCK, CEM), untreated or treated with DTE before chromatography; fractions read by TK1 activity and western blot

In the case of “cellular (native) canine TK1 from MDCK cells (enzyme)”, the stoichiometry N [1] is reported as 2 and 4.

For canine serum TK1 (enzyme), the stoichiometry N [2] was 2 and 4.

B1: human serum TK1 (enzyme, human (endogenous in serum), UniProt P04183 1-234, looked up)
chain: MSCINLPTVLPGSPSKTRGQIQVILGPMFSGKSTELMRRVRRFQIAQYKCLVIKYAKDTRYSSSFCTHDRNTMEALPACLLRDVAQEALGVAVIGIDEGQFFPDIVEFCEAMANAGKTVIVAALDGTFQRKPFGAILNLVPLAESVVKLTAVCMECFREAAYTKRLGTEKEVEVIGGADKYHSVCRLCYFKKASGQPAGPDNKENCPVPGKPGEAVAARKLFAPQQILQCSPAN
notes: thymidine kinase 1, human, serum form; polypeptide of apparent MW 25 kDa on western blot; source: endogenous, pooled sera from human patients with acute lymphocytic leukemia
For B1, the “stoichiometry N” value [3] was 2 and 4.

B2: recombinant human thymidine kinase 1 (enzyme, UniProt P04183 1-234, looked up)
chain: MSCINLPTVLPGSPSKTRGQIQVILGPMFSGKSTELMRRVRRFQIAQYKCLVIKYAKDTRYSSSFCTHDRNTMEALPACLLRDVAQEALGVAVIGIDEGQFFPDIVEFCEAMANAGKTVIVAALDGTFQRKPFGAILNLVPLAESVVKLTAVCMECFREAAYTKRLGTEKEVEVIGGADKYHSVCRLCYFKKASGQPAGPDNKENCPVPGKPGEAVAARKLFAPQQILQCSPAN
notes: thymidine kinase 1, human, full-length cDNA; vector pEXP-5NT/TOPO; also called hTK1; human TK1
In the case of B2, the “stoichiometry N” value [4] is reported as 2 and 4.

B3: cellular (native) human TK1 from CEM cells (enzyme, human (endogenous in CCRF-CEM), UniProt P04183 1-234, looked up)
chain: MSCINLPTVLPGSPSKTRGQIQVILGPMFSGKSTELMRRVRRFQIAQYKCLVIKYAKDTRYSSSFCTHDRNTMEALPACLLRDVAQEALGVAVIGIDEGQFFPDIVEFCEAMANAGKTVIVAALDGTFQRKPFGAILNLVPLAESVVKLTAVCMECFREAAYTKRLGTEKEVEVIGGADKYHSVCRLCYFKKASGQPAGPDNKENCPVPGKPGEAVAARKLFAPQQILQCSPAN
notes: thymidine kinase 1, human, endogenous in CCRF-CEM cells; 25 kDa band on western blot; also called cytosolic human TK1; source: endogenous, crude CCRF-CEM cell extract
With B3 the “stoichiometry N” value [5] was 2 and 4.
